For the test, the target named is protein G B1. The test can be described thus: quartz crystal microbalance with dissipation monitoring (QCM-D); protein G B1 adsorbed from 5 ug/ml in PBS onto polystyrene-coated gold quartz sensors, rinsed, then IgG flowed at 5 ug/ml in PBS, 150 ul/min, pH 7.4, 22 °C; mass by the Sauerbrey equation.

IgG antibody displayed a Sauerbrey mass bound of 350 ng/cm^2.

(Values after article PMC5148762.)
